Reference: US20220242939A1

Legend:
[1] = target: recombinant full-length ApoE4 (aa 1-299; SEQ ID NO:45; Abcam cat. no. ab50243) (human) (UniProt P02649); test: direct ELISA; proteins coated at 0.1 uM, BSA peptides at 1 ug/ml; antibody in 3-fold dilutions from 3000 ng/ml; blank reduced OD 450 nm
[2] = target: recombinant C-terminal ApoE fragment L198-HIS (ApoE-L198-H299-10xHIS) (human) (UniProt P02649); test: as above
[3] = target: recombinant full-length ApoE4 (aa 1-299; SEQ ID NO:45; Abcam cat. no. ab50243) (human) (UniProt P02649); test: as above; remark: listed apart in the source
[4] = target: recombinant C-terminal ApoE fragment A199-HIS (ApoE-A199-H299-10xHIS) (human) (UniProt P02649); test: as above
Chain of recombinant C-terminal ApoE fragment A199-HIS (ApoE-A199-H299-10xHIS) (human) (P02649 other isoform, or with tags, fused parts or gaps limits assumed): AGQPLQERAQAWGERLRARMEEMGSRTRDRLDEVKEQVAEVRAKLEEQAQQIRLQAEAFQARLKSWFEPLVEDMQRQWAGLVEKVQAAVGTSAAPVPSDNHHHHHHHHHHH

[5] = target: recombinant C-terminal ApoE fragment G200-HIS (ApoE-G200-H299-10xHIS) (human) (UniProt P02649); test: direct ELISA, target coated at 1 ug/ml, antibody in 3-fold dilutions from 500 ng/ml, OD 450 nm
Chain of recombinant C-terminal ApoE fragment G200-HIS (ApoE-G200-H299-10xHIS) (human) (P02649 other isoform, or with tags, fused parts or gaps limits assumed): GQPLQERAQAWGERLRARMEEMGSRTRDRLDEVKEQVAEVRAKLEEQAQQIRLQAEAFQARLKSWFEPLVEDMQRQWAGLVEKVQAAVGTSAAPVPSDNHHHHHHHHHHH

[6] = target: His-tagged recombinant full-length ApoE4, 10xHIS-ApoE4(1-299) (human) (UniProt P02649); test: as above
Chain of His-tagged recombinant full-length ApoE4, 10xHIS-ApoE4(1-299) (human) (P02649 other isoform, or with tags, fused parts or gaps limits assumed): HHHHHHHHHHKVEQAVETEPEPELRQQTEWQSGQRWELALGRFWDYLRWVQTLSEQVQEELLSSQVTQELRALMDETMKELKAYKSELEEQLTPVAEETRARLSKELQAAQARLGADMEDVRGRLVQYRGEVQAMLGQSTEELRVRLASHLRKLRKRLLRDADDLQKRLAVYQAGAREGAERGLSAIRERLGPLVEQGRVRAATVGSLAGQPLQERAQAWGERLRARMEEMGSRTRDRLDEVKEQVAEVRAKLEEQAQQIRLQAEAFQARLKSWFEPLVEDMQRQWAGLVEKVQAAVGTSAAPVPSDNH

[7] = target: recombinant full-length ApoE4 (aa 1-299; SEQ ID NO:45; Abcam cat. no. ab50243) (human) (UniProt P02649); test: direct ELISA, second protocol; proteins coated at 0.1 uM, BSA peptides at 1 ug/ml; antibody in 3-fold dilutions from 3000 ng/ml; blank reduced OD 450 nm
[8] = target: recombinant C-terminal ApoE fragment G200-HIS (ApoE-G200-H299-10xHIS) (human) (UniProt P02649); test: as above
[9] = target: recombinant full-length ApoE4 (aa 1-299; SEQ ID NO:45; Abcam cat. no. ab50243) (human) (UniProt P02649); test: direct ELISA, target coated at 1 ug/ml, reference antibody in 3-fold dilutions from 1000 ng/ml, OD 450 nm
[10] = target: recombinant C-terminal ApoE fragment G200-HIS (ApoE-G200-H299-10xHIS) (human) (UniProt P02649); test: as above

Chain of recombinant full-length ApoE4 (aa 1-299; SEQ ID NO:45; Abcam cat. no. ab50243) (human) (P02649 19-317 C130R limits assumed): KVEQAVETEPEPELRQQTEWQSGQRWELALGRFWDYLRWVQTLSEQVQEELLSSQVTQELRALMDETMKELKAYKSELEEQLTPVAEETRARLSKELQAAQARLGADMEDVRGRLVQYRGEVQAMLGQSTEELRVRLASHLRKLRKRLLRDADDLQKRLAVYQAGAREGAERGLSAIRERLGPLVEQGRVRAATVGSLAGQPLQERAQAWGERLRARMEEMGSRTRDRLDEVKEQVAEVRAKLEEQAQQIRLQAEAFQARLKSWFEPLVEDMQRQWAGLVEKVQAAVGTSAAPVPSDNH
Chain of recombinant C-terminal ApoE fragment L198-HIS (ApoE-L198-H299-10xHIS) (human) (P02649 other isoform, or with tags, fused parts or gaps limits assumed): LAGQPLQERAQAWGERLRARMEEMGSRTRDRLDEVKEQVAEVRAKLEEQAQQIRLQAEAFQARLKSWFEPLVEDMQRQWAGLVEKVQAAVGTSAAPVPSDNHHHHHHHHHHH

EC50 (read off the curve) [1]: 8 ng/mL
EC50 (read off the curve) [2]: 2 ng/mL
EC50 (read off the curve) [3]: 6 ng/mL
EC50 (read off the curve) [4]: 5 ng/mL
EC50 (read off the curve) [5]: 4 ng/mL
EC50 (read off the curve) [6]: 4 ng/mL
EC50 (read off the curve) [7]: 4 ng/mL
EC50 (read off the curve) [8]: 4 ng/mL
EC50 (read off the curve) [9]: 4 ng/mL
EC50 (read off the curve) [10]: 5 ng/mL
Substance: reference anti-ApoE C-terminal antibody ApoE E-8 mouse monoclonal (Santa Cruz Biotechnology, cat. no. sc-393302)
